Source: patent US20170121416A1 (AbbVie / Abbott, published 2017)
Read-outs that look alike come from different tables or passages of the source.

B1: SC10.38 (antibody, V domains shown)
VH: QVQLQQSGAELMKTGASVKISCKATGYTFSSYWIEWVKQRPGHGLEWIGEILPGSGKTNYNENFKGKATFTADTSSNTAYMQLSSLTSEDSVVYYCARRGAYYGNFDYWGQGTTLTVSS
VL: DIQMNQSPSSLSASLGDTITITCHVSQNINVWLTWYQQKPGNIPKLLLYKASNLQTGVPSRFSGSGSGTGFTLTISSLQPEDIATYYCQQGQSYPFTFGSGTK
B2: SC10.36 (antibody, V domains shown)
VH: QVQLQQSGNELVRPGSAVKISCKASGYAFSSYWMNWVKQRPGQGLEWIGQIYPGDDDSNYNGKFKGKATLTADKSSSSAYMHLSSLTSEDSAVYFCARGFATPTMDYWGQGTSVTVSS
VL: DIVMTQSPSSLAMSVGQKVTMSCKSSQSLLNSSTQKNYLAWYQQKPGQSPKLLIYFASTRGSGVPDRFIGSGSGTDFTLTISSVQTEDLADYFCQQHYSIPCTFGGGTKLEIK
B3: SC10.178 (antibody, V domains shown)
VH: QILLVQSGPELKKPGETVKISCKANYTFTDYGMHWVKQAPGKGLKWMGWINPKTGVASYADDFKGRFAFSLETSASTAYLQINNLENEDTSIYFCARFFDYWGQGTTLTVSS
VL: DIVLTQSPLSLLVSLGDQASISCRSSQSLVHSNGNTYLHWYLQKPGQSPNLLIFKVSNRFSGVPDRFSGSGSGTDFTLRISRVEAEDLGVYFCSQTTHVWTFGGGTKLEIK
B4: SC10.168 (antibody, V domains shown)
VH: SDVQLQESGPGLVKPSQSLSVTCTVTDYSLTSGYYWNWIRQFPGNKLEWMAYIHSSGSTHYNPSLKSRISVTRDTSKNQFFLQLNSVTTEDTATYYCARDGAYYSSWFPYWGQGTLVTVSA
VL: DIVMTQSHKLMSASVGDRVSITCKASQDVGTAVAWYQQKPGRSPKLLIYWASNRHTGVPDRFTGSGSGTDFTLTISNVQSEDLADYFCQQFGSYPYTFGGGTKLEIKR
B5: SC10.35 (antibody, V domains shown)
VH: SDVQLQESGPGLVKPSQSLSLTCTVTDYSITSDYAWNWIRQFPGNNLEWMGNIGYSGDTSYNPSLKSRISITRDTSKNQFFLQLNSVTTEDSATYYCARSSLGPFDYWGQGTALTVSS
VL: QIVLTQSPAIMSASPGERVTLTCSASSSVSSSFLYWYQQKSGSSPKLWIYSTSTLASGVPARFSGSGSGTSYSLTISSMEAEDAASYFCHQWSSYPWTFGGGTKLEIK
B6: SC10.75 (antibody, V domains shown)
VH: QVQLKESGPGLVAPSQSLSITCTVTGFSLSRYSVHWIRQPPGKGLEWLGMIWGGGSTDYNSALKSRLSINKDNSKSQVFLKMNSLQTVDTAMYYCARTQFYYGHDGGYAMDYWGQGTSVTVSS
VL: DIVMSQSPSSLAVSVGEKVTMSCKSSQSLLYSNNQKNYLAWYQQKPGQSPKLLIYWASSRESGVPERFTGSGSGTDFTLTISSVKAEDLAVYYCQQYYSSPYTFGGGTKLK
notes: murine mAb; variable regions only
B7: SC10.163 (antibody, V domains shown)
VH: EVQLQQSGPELVKPGDSVKMSCKASGNTVTNYYMDWVKQSHGKSLEWIGYIYANNGGTSYNQKFKGKATLTVDKSSSTAYMEIHSLTSEDSAVYYCAIYYRYEFAYWGQGTLVTVSA
VL: DIVMTQAAFSNPVTLGTSASISCRSSKSLLHSNGITYLYWYLQKPGQSPQLLIYQMSNLASGVPDRFSNSGSGTDFTLRISRVEAEDVGVYYCAQNLELPWTFGGGTKLEIK
B8: SC10.17 (antibody, V domains shown)
VH: DVQLVESGGGLVQPGGSRKLSCAASGFTFSSYGMHWVRQAPETGLEWVAYITTRSSTIYYAATVKGRFTISRDNARNTLFLQMTSLRSEDTAMYYCTREPLTGYYAMDYWGQGTSVTVSS
VL: DVLMTQTPLSLPVSLGDQASISCRSSQSIVHSDGNTYLEWYLRKPGQSPRLLIYKVSNRFSGVPDRFSGSGSGTDFTLKISRVEAEDLGVYYCFQGSHAPWTFGGGTKLEIK
notes: murine monoclonal antibody from hybridoma; also called murine SC10.17; mAb SC10.17

Tests used:
[1] = biological target: T1, human CD324 on cells (MCF7, BR22, NTX tumor cells, 293-hCD324) (human, UniProt P12830 155-882); assay: cell-based or functional assay
T1 sequence: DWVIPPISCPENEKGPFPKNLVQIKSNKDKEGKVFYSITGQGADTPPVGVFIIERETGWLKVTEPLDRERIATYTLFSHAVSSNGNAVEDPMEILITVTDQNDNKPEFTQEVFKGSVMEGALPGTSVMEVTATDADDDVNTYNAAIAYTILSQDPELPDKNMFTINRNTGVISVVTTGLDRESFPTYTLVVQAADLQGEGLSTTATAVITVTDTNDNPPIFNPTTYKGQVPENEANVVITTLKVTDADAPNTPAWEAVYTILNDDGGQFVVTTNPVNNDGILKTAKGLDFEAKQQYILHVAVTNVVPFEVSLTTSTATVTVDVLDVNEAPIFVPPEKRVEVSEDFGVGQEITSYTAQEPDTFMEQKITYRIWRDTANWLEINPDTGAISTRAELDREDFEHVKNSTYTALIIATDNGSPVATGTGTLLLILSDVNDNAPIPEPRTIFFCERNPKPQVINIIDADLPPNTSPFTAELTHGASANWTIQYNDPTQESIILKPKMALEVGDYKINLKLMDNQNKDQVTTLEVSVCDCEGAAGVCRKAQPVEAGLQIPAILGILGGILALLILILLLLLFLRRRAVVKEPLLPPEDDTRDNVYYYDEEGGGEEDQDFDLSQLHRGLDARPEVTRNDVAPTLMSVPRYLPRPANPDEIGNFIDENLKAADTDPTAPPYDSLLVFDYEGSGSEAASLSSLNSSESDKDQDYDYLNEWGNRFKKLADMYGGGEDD

[2] = biological target: T1, human CD324 on cells (MCF7, BR22, NTX …); assay: cell-based or functional assay; remark: listed apart in the source
[3] = biological target: T1, human CD324 on cells (MCF7, BR22, NTX …); assay: cell-based or functional assay; remark: listed apart in the source
[4] = biological target: T1, human CD324 on cells (MCF7, BR22, NTX …); assay: cell-based or functional assay; remark: listed apart in the source
[5] = biological target: T2, mouse CD324 (Sino Biologics) (mouse, UniProt P09803 157-709, limits assumed); assay: direct ELISA on plate-coated mouse CD324 (Example 7, paragraph 375; paragraph 370 names ForteBio)
T2 construct: bought recombinant protein coated on the ELISA plate; also called murine CD324; mouse homolog
T2 sequence (looked up): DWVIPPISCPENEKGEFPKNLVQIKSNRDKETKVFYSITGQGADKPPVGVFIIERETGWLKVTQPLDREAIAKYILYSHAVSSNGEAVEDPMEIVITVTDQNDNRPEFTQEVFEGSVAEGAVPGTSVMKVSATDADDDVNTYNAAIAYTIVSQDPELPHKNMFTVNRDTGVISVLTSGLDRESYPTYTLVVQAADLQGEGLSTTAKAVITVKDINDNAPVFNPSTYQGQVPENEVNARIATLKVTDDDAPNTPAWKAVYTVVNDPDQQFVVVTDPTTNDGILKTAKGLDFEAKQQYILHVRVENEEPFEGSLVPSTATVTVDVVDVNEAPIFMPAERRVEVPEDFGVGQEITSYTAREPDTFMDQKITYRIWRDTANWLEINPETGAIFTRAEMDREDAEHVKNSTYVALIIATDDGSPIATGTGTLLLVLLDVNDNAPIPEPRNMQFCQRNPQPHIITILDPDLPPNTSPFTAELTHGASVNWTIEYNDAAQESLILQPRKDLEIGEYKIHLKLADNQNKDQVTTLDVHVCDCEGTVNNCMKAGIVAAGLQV

[6] = biological target: T1, human CD324 on cells (MCF7, BR22, NTX …); assay: cell-based or functional assay; remark: listed apart in the source
[7] = biological target: T3, human CD324-His recombinant protein (Sino Biological, Inc.) (human, UniProt P12830 155-709); assay: SPR (Biacore), concentration series 25, 12.5 and 6.25 nM, 1:1 Langmuir binding model; murine parent antibody
T3 construct: bought soluble protein; The antigen of the Biacore experiment is only called human CD324 antigen; also called hCD324-His; human CD324 antigen; not shown: His tag
T3 sequence: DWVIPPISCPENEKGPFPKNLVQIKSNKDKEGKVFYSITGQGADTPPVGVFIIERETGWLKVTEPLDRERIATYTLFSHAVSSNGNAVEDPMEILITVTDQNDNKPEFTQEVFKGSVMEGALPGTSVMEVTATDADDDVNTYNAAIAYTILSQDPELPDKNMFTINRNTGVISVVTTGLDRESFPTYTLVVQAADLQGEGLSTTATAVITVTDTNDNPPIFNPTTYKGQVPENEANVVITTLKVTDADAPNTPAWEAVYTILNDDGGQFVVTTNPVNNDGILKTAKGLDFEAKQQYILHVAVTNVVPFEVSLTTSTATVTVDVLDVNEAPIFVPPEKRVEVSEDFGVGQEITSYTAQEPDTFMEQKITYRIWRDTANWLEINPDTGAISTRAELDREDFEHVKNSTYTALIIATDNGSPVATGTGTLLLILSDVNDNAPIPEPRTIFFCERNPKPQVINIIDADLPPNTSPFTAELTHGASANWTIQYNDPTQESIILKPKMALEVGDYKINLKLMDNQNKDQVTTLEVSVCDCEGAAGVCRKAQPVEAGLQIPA

[8] = biological target: T1, human CD324 on cells (MCF7, BR22, NTX …); assay: cell-based or functional assay; remark: listed apart in the source

Binder | Normalized RLU at 10pM (MCF7, Fab-saporin) [1] | Normalized RLU at 100pM (MCF7, Fab-saporin) [1] | Percent live cells remaining at 10pM (MCF7, Fab-saporin) [2] [%] | EC50 (MCF7, Fab-saporin killing) [3] [pM] | EC50 (read off the curve) [4] [pM] | binding result [5] | EC50 of killing of MCF7 cells, Fab-saporin assay [6] [pM] | Kd [7] [pM] | EC50 (MCF7, Fab-saporin killing) [8] [pM]
B1 | 102 | 106 |  |  |  |  |  |  | 
B2 | 40.7 | 21.2 |  |  |  |  |  |  | 
B3 | 68 | 38.1 | 68 | 3.1 |  |  |  |  | 
B4 | 64.8 | 34 |  |  |  |  |  |  | 
B5 | 37.2 | 19.4 |  | 0.71 | ~0.6 |  |  |  | 
B6 | 101 | 98.8 | 101 |  |  | no binding |  |  | 
B7 | 91.5 | 90.3 |  |  |  |  |  |  | 
B8 |  |  | 32 | 0.13 |  | no binding | 1.2 | 2000 | 1.22
